Reference: article PMC4287450, “PRDM9 Drives Evolutionary Erosion of Hotspots in Mus musculus through Haplotype-Specific Initiation of Meiotic Recombination”

B1: chr1_158 oligo 1 (dsDNA)
DNA 1: CGTCTGCTCTCTGTAGGAAGTGCTCCATGGACAGTAGCTTCTGCCTTTCCTT
DNA 2: AAGGAAAGGCAGAAGCTACTGTCCATGGAGCACTTCCTACAGAGAGCAGACG
B2: chr1_185 oligo 1 (dsDNA)
DNA 1: TCCCAGGACTATGAGTTTAGAGAGAAAAAAAACTAAAGTTACAGTAGCTTCATGTTG
DNA 2: CAACATGAAGCTACTGTAACTTTAGTTTTTTTTCTCTCTAAACTCATAGTCCTGGGA
B3: chr1_185 oligo 2 (dsDNA)
DNA 1: AGAGAGAAAAAAAACTAAAGTTACAGTAGCTTCATGTTGTAGATGGGTATATACCGCT
DNA 2: AGCGGTATATACCCATCTACAACATGAAGCTACTGTAACTTTAGTTTTTTTTCTCTCT

molecular target: PRDM9Dom2 (Mus musculus domesticus (B6 allele), UniProt Q96EQ9 513-843); test: competition; 20x unlabeled vs labeled CAST DNA; EMSA as in Billings et al. 2013 (buffer, pH, temperature not given); unlabeled competitor dsDNA at 20x labeled DNA; settings: protein: recombinant; blunt
Sequence (Q96EQ9 513-843): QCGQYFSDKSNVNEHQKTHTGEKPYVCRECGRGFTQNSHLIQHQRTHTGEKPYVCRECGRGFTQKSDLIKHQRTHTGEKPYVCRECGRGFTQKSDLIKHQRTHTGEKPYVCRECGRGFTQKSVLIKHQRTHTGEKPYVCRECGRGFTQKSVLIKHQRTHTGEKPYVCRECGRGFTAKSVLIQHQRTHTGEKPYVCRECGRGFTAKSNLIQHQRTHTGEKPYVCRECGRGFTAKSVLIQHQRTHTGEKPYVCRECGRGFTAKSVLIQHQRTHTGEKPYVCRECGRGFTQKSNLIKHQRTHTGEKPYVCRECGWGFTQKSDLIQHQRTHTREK

Binding result, binds:
B1
B2
B3
